Source: the PETadex activity labels (doi:10.1007/s00253-014-5672-0)

Assays:
[1] = Melting temperature [CD spectroscopy]; settings: pH 8.5; part of the chain shown
pNPB = experiment: Proxy for plastic degradation [Residual activity]; settings: pH 8, part of the chain shown

B1: unnamed (protein)
chain: ANPYERGPNPTDALLEARSGPFSVSEENVSRLSASGFGGGTIYYPRENNTYGAVAISPGYTGTEASIAWLGERIASHGFVVITIDTITTLDQPDSRAEQLNAALNHMINRASSTVRSRIDSSRLAVMGHSMGGGGSLRLASQRPDLKAAIPLTPWHLNKNWSSVTVPTLIIGADLDTIAPVATHAKPFYNSLPSSISKAYLELDGATHFAPNIPNKIIGKYSVAWLKRFVDNDTRYTQFLCPGPRDGLFGEVEEYRSTCPF
**Q.** With B1 as the protein, how does the Melting temperature [1] read?
**A.** 70 °C

B2: unnamed (protein)
chain: ANPYERGPNPTDALLEARSGPFSVSEENVSRLSASGFGGGTIYYPRENNTYGAVAISPGYTGTEASIAWLGERIASHGFVVITIDTITTLDQPDSRAEQLNAALNHMINRASSTVRSRIDSSRLAVMGHSMGGGGSLRLASQRPDLKAAIPLTPWHLNKNWSSVTVPTLIIGADLDTIAPVATHAKPFYNSLPSSISKAYLELDGATHFAPNIPNKIIGKYSVAWLKRFVDNDTRYTQFLCPGPRDGLFGEVEEYRSTCPFY
**Q.** With B2 as the protein, how does the “Proxy for plastic degradation” value (pNPB; 25 °C) read?
**A.** 100%

**Q.** What about the “Proxy for plastic degradation” value (pNPB; 30.7 °C) of the same protein?
**A.** 110%

**Q.** And the “Proxy for plastic degradation” value (pNPB; 40.2 °C)?
**A.** 95%

**Q.** What about the “Proxy for plastic degradation” value (pNPB; 50.6 °C) of the same protein?
**A.** 115%

**Q.** What about the “Proxy for plastic degradation” value (pNPB; 54.9 °C) of the same protein?
**A.** 85%

**Q.** What about the “Proxy for plastic degradation” value (pNPB; 59.5 °C) of the same protein?
**A.** 65%

**Q.** What about the “Proxy for plastic degradation” value (pNPB; 65.6 °C) of the same protein?
**A.** 2%

**Q.** And the “Proxy for plastic degradation” value (pNPB; 68.6 °C)?
**A.** 1%

**Q.** And the “Proxy for plastic degradation” value (pNPB; 74.8 °C)?
**A.** 0%

**Q.** What about the “Proxy for plastic degradation” value (pNPB; 78.8 °C) of the same protein?
**A.** 0%
